Laboratory results reported in patent USRE47150 (Bayer, dated 2018).
Where two headings read alike, the source gives them in different places.

How the values were obtained:
[1] = target: T1, human tissue factor pathway inhibitor (TFPI) (human, UniProt P10646 29-304, limits assumed); assay: SPR, TFPI immobilized
T1 construct: bought; also called hTFPI; human TFPI
T1 sequence (looked up): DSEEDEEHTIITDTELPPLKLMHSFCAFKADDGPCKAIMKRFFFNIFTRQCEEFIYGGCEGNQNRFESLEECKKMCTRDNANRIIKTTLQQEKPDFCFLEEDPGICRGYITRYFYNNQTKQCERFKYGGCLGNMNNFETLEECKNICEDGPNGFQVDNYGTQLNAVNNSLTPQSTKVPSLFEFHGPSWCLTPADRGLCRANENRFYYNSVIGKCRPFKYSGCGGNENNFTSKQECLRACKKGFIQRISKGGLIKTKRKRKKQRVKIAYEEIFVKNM

[2] = target: T2, mouse tissue factor pathway inhibitor (TFPI) (mouse, UniProt O54819 29-289, limits assumed); assay: SPR, TFPI immobilized
T2 construct: bought; also called mTFPI; murine TFPI
T2 sequence (looked up): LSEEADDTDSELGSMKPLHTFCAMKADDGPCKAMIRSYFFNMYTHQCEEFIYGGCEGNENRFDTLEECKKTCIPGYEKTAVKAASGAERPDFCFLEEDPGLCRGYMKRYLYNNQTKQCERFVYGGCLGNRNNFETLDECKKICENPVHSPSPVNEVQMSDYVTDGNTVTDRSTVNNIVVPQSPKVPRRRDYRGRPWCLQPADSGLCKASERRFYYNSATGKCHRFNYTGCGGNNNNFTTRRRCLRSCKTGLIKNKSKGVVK

[3] = target: recombinant TFPI of the FXa restoring assay (human, mouse or rat; not specified for Tables 9 and 10); assay: cell-based or functional assay
[4] = target: T2, mouse tissue factor pathway inhibitor …; assay: competitive ELISA
[5] = target: T1, human tissue factor pathway inhibitor …; assay: competitive ELISA
[6] = target: T2, mouse tissue factor pathway inhibitor …; assay: competitive ELISA; remark: listed apart in the source
[7] = target: T1, human tissue factor pathway inhibitor …; assay: competitive ELISA; remark: listed apart in the source
[8] = target: T1, human tissue factor pathway inhibitor …; assay: SPR, TFPI immobilized; remark: listed apart in the source
[9] = target: T2, mouse tissue factor pathway inhibitor …; assay: SPR, TFPI immobilized; remark: listed apart in the source

Improvement [1] [fold]	Kd [1] [nM]	koff [1] [s⁻¹]	kon [1] [M⁻¹ s⁻¹]	Improvement [2] [fold]	Kd [2] [nM]	koff [2] [s⁻¹]	kon [2] [M⁻¹ s⁻¹]	IC50, FXa restoring assay [3] [µg/mL]	Improvement vs parental, FXa restoring assay [3] [fold]	variant/wild-type [4] [ratio]	variant/wild-type [5] [ratio]	also measured	Binder
1.95	1.15	0.00333	2.91e+06	1.71	2.06	0.00316	1.53e+06	0.33	1.7	2.4	3.6		2A8 HC_S31P (Fab, V domains shown, also called 2A8-2) VH: QVQLVESGGGLVQPGGSLRLSCAASGFTFRPYGMSWVRQAPGKGLEWVSSIRGSSSSTYYADSVKGRFTISRDNSKNTLYLQMNSLRAEDTAVYYCARKYRYWFDYWGQGTLVTVSS VL: DIELTQPPSVSVAPGQTARISCSGDNLRNYYAHWYQQKPGQAPVVVIYYDNNRPSGIPERFSGSNSGNTATLTISGTQAEDEADYYCQSWDDGVPVFGGGTKLTVLG
												variant/HC_K99L [6]: 13.3 ratio; variant/HC_K99L [7]: 18.3 ratio; KD fold improvement [8]: 31.7 fold; Kd [8]: 0.0584 nM; koff [8]: 3.61e-05 s⁻¹; kon [8]: 617000 M⁻¹ s⁻¹; KD fold improvement [9]: 27.3 fold; Kd [9]: 0.121 nM; koff [9]: 0.000139 s⁻¹; kon [9]: 1.15e+06 M⁻¹ s⁻¹	2A8-g200 (HC Q1E+R30S+S35D+S55R+S56G+K99L/LC D1S+I2Y+A13S+S21T+R28P+N29K+Y48F+N51V+E80M+S89A+D91W+D92S+G93S+V94T) (Fab, V domains shown) VH: EVQLVESGGGLVQPGGSLRLSCAASGFTFSSYGMDWVRQAPGKGLEWVSSIRGSRGSTYYADSVKGRFTISRDNSKNTLYLQMNSLRAEDTAVYYCARLYRYWFDYWGQGTLVTVSS VL: SYELTQPPSVSVSPGQTARITCSGDNLPKYYAHWYQQKPGQAPVVVIFYDVNRPSGIPERFSGSNSGNTATLTISGTQAMDEADYYCQAWWSSTPVFGGGTKLTVLG
												variant/HC_K99L [6]: 21.4 ratio; variant/HC_K99L [7]: 19.6 ratio; KD fold improvement [8]: 50.7 fold; Kd [8]: 0.0365 nM; koff [8]: 5.29e-05 s⁻¹; kon [8]: 1.45e+06 M⁻¹ s⁻¹; KD fold improvement [9]: 41.6 fold; Kd [9]: 0.0791 nM; koff [9]: 7.78e-05 s⁻¹; kon [9]: 984000 M⁻¹ s⁻¹	2A8-g216 (HC S31V+I51D+S55R+K99V/LC D1S+I2Y+A13S+S21T+R28P+N29K+Y48F+N51S+E80M+D91L+D92S+V94T+V96W) (Fab, V domains shown) VH: QVQLVESGGGLVQPGGSLRLSCAASGFTFRVYGMSWVRQAPGKGLEWVSSDRGSRSSTYYADSVKGRFTISRDNSKNTLYLQMNSLRAEDTAVYYCARVYRYWFDYWGQGTLVTVSS VL: SYELTQPPSVSVSPGQTARITCSGDNLPKYYAHWYQQKPGQAPVVVIFYDSNRPSGIPERFSGSNSGNTATLTISGTQAMDEADYYCQSWLSGTPWFGGGTKLTVLG
2.24	0.999	0.0044	4.41e+06					0.37	1.7	1.6	4.2		2A8 LC_D91L (Fab, V domains shown, also called 2A8-16) VH: QVQLVESGGGLVQPGGSLRLSCAASGFTFRSYGMSWVRQAPGKGLEWVSSIRGSSSSTYYADSVKGRFTISRDNSKNTLYLQMNSLRAEDTAVYYCARKYRYWFDYWGQGTLVTVSS VL: DIELTQPPSVSVAPGQTARISCSGDNLRNYYAHWYQQKPGQAPVVVIYYDNNRPSGIPERFSGSNSGNTATLTISGTQAEDEADYYCQSWLDGVPVFGGGTKLTVLG
4.64	0.482	0.00209	4.33e+06					0.34	1.9	1.4	3.5		2A8 LC_D91K (Fab, V domains shown, also called 2A8-15) VH: QVQLVESGGGLVQPGGSLRLSCAASGFTFRSYGMSWVRQAPGKGLEWVSSIRGSSSSTYYADSVKGRFTISRDNSKNTLYLQMNSLRAEDTAVYYCARKYRYWFDYWGQGTLVTVSS VL: DIELTQPPSVSVAPGQTARISCSGDNLRNYYAHWYQQKPGQAPVVVIYYDNNRPSGIPERFSGSNSGNTATLTISGTQAEDEADYYCQSWKDGVPVFGGGTKLTVLG
6	0.373	0.00143	3.84e+06	5.91	0.595	0.00202	3.39e+06	0.201	3.5	7.4	9.7		2A8 HC_S31V (Fab, V domains shown, also called 2A8-3) VH: QVQLVESGGGLVQPGGSLRLSCAASGFTFRVYGMSWVRQAPGKGLEWVSSIRGSSSSTYYADSVKGRFTISRDNSKNTLYLQMNSLRAEDTAVYYCARKYRYWFDYWGQGTLVTVSS VL: DIELTQPPSVSVAPGQTARISCSGDNLRNYYAHWYQQKPGQAPVVVIYYDNNRPSGIPERFSGSNSGNTATLTISGTQAEDEADYYCQSWDDGVPVFGGGTKLTVLG
												variant/HC_K99L [6]: 18.2 ratio; variant/HC_K99L [7]: 18.8 ratio; KD fold improvement [8]: 49.4 fold; Kd [8]: 0.0375 nM; koff [8]: 0.000123 s⁻¹; kon [8]: 3.28e+06 M⁻¹ s⁻¹; KD fold improvement [9]: 21.4 fold; Kd [9]: 0.153 nM; koff [9]: 0.00106 s⁻¹; kon [9]: 6.91e+06 M⁻¹ s⁻¹	2A8-227 (HC S35D+K99L/LC Y48F+D91L+V96W) (Fab, V domains shown) VH: QVQLVESGGGLVQPGGSLRLSCAASGFTFRSYGMDWVRQAPGKGLEWVSSIRGSSSSTYYADSVKGRFTISRDNSKNTLYLQMNSLRAEDTAVYYCARLYRYWFDYWGQGTLVTVSS VL: DIELTQPPSVSVAPGQTARISCSGDNLRNYYAHWYQQKPGQAPVVVIFYDNNRPSGIPERFSGSNSGNTATLTISGTQAEDEADYYCQSWLDGVPWFGGGTKLTVLG
2.35	0.95	0.0038	4.01e+06	1.78	1.98	0.00246	1.25e+06	0.55	1.1	2.6	4.3		2A8 HC_S35D (Fab, V domains shown, also called 2A8-4) VH: QVQLVESGGGLVQPGGSLRLSCAASGFTFRSYGMDWVRQAPGKGLEWVSSIRGSSSSTYYADSVKGRFTISRDNSKNTLYLQMNSLRAEDTAVYYCARKYRYWFDYWGQGTLVTVSS VL: DIELTQPPSVSVAPGQTARISCSGDNLRNYYAHWYQQKPGQAPVVVIYYDNNRPSGIPERFSGSNSGNTATLTISGTQAEDEADYYCQSWDDGVPVFGGGTKLTVLG
1.97	1.14	0.003	2.64e+06					0.34	1.9	3.2	4.6		2A8 LC_Y48F (Fab, V domains shown, also called 2A8-14) VH: QVQLVESGGGLVQPGGSLRLSCAASGFTFRSYGMSWVRQAPGKGLEWVSSIRGSSSSTYYADSVKGRFTISRDNSKNTLYLQMNSLRAEDTAVYYCARKYRYWFDYWGQGTLVTVSS VL: DIELTQPPSVSVAPGQTARISCSGDNLRNYYAHWYQQKPGQAPVVVIFYDNNRPSGIPERFSGSNSGNTATLTISGTQAEDEADYYCQSWDDGVPVFGGGTKLTVLG
2	1.12	0.00432	3.86e+06	4.32	0.814	0.00232	2.86e+06	0.23	3	4	7.4		2A8 LC_D91W (Fab, V domains shown, also called 2A8-17) VH: QVQLVESGGGLVQPGGSLRLSCAASGFTFRSYGMSWVRQAPGKGLEWVSSIRGSSSSTYYADSVKGRFTISRDNSKNTLYLQMNSLRAEDTAVYYCARKYRYWFDYWGQGTLVTVSS VL: DIELTQPPSVSVAPGQTARISCSGDNLRNYYAHWYQQKPGQAPVVVIYYDNNRPSGIPERFSGSNSGNTATLTISGTQAEDEADYYCQSWWDGVPVFGGGTKLTVLG
3.08	0.727	0.00204	2.81e+06	1.69	2.07	0.00183	884000	0.35	2	3.1	6.5		2A8 HC_S54F (Fab, V domains shown, also called 2A8-7) VH: QVQLVESGGGLVQPGGSLRLSCAASGFTFRSYGMSWVRQAPGKGLEWVSSIRGFSSSTYYADSVKGRFTISRDNSKNTLYLQMNSLRAEDTAVYYCARKYRYWFDYWGQGTLVTVSS VL: DIELTQPPSVSVAPGQTARISCSGDNLRNYYAHWYQQKPGQAPVVVIYYDNNRPSGIPERFSGSNSGNTATLTISGTQAEDEADYYCQSWDDGVPVFGGGTKLTVLG
